Reference: US20070275916A1

Experiments:
[1] = biological target: G-CSFR on mouse bone marrow cells (mouse) (UniProt P40223); assay: radiolabeled G-CSF on bone marrow cells from vavCre+SOCS3-/fl mice, with and without excess unlabeled G-CSF
[2] = biological target: G-CSFR on mouse bone marrow cells (mouse) (UniProt P40223); assay: radiolabeled G-CSF on bone marrow cells from control vavCre-SOCS3+/fl mice, with and without excess unlabeled G-CSF

UniProt P40223, sequence (P40223 26-837): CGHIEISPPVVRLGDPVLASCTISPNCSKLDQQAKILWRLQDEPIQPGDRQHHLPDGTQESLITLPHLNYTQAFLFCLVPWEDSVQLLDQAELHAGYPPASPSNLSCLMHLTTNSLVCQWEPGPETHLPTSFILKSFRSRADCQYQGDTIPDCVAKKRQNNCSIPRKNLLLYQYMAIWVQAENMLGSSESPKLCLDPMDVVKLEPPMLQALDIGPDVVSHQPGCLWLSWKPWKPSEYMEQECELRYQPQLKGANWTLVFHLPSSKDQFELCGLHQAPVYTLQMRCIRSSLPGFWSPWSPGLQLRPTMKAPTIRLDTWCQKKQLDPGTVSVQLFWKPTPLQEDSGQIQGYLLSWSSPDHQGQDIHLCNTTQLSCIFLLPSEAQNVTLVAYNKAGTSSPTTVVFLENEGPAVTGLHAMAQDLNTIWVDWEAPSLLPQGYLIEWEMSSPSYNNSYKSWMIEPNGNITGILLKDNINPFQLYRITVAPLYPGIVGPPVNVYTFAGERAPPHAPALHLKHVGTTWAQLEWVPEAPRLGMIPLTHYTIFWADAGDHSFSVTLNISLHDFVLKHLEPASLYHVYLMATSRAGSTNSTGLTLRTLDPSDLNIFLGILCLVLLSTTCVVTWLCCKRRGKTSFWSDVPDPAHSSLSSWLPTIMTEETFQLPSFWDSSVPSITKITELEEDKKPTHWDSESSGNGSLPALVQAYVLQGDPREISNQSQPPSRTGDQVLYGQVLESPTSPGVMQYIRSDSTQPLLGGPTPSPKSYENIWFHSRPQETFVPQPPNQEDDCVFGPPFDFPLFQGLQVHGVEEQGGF

Substance: radiolabeled G-CSF (ligand)
- cpm bound [1]: 1700 cpm
- cpm bound [2]: 1880 cpm
